Paper PMC9943664

System: MBP-DDX3X (human)
Experiment: EMSA
Conditions: DDX3X EMSA: 40 mM Tris-Cl pH 8, 50 mM NaCl, 0.5 mM MgCl2, 2 mM DTT, 0.01% NP40, 2 mM AMP-PNP/MgCl2, 37 C 30 min, UV 254 nm 3 min, 6% native PAGE in 0.5x TB + …

Substance	Kd (none (unmodified))	Kd (native post-transcriptional modifications (not listed))
synthetic tRNA-LysUUU	431 nM	
endogenous tRNA-LysUUU/CUU		83.4 nM
